The experiment has as its target Isu1 (mature, residues 36-165) with the C-terminal His tag (S. cerevisiae) (UniProt Q03020). In words: native MS.

B1: Hsc20 without tag, co-expressed with Isu1 and Ssq1* (natural protein)
chain: TSTFYELFPKTFPKKLPIWTIDQSRLRKEYRQLQAQHHPDMAQQGSEQSSTLNQAYHTLKDPLRRSQYMLKLLRNIDLTQEQTSNEVTTSDPQLLLKVLDIHDELSQMDDEAGVKLLEKQNKERIQDIEAQLGQCYNDKDYAAAVKLTVELKYWYNLAKAFKDWAPGKQLEMNH
In general, stoichiometry N refers to the number of molecules, sites or subunits per partner or assembly. B1 displayed a stoichiometry N of 1.
